Experimental data as given in patent publication US20240010701A1 (ALX ONCOLOGY, published 2024).
Where a chain is given by its changes, count along the chain named.

Experiments:
[1] = target: T1, cynomolgus Nectin-4 extracellular domain (ECD) with C-terminal His6 (cynomolgus, UniProt Q96NY8 32-349 (human entry)); assay: SPR (Biacore 8K), DRUG B captured on Protein A chip, nectin-4-ECD as analyte, single-cycle kinetics, 1:1 fit, 37° C; 37° C., cynomolgus nectin-4-ECD
T1 construct: also called Cyno Nectin-4-ECD; cynomolgus nectin-4-ECD
T1 chain: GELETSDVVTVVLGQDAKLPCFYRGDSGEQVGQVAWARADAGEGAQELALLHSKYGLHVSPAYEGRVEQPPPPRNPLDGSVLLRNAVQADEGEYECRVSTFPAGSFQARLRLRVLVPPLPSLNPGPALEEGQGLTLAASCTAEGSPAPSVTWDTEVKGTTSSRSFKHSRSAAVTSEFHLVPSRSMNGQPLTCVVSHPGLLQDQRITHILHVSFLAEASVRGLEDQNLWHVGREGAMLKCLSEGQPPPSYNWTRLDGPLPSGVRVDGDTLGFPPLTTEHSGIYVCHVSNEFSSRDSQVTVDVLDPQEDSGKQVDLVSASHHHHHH

hFcγIIa-R131 [2] = target: T2, hFcγIIa-R131 (human, UniProt P12318 36-218); assay: SPR (Biacore 8K), 25° C, antibody captured on nectin-4-coated chip, receptor ECD as analyte, steady-state analysis
T2 construct: extracellular domain; Position 131 is the customary mature-protein numbering, not the precursor numbering of the database entry; also called hFcγRIIa (CD32a) R131
T2 sequence (looked up): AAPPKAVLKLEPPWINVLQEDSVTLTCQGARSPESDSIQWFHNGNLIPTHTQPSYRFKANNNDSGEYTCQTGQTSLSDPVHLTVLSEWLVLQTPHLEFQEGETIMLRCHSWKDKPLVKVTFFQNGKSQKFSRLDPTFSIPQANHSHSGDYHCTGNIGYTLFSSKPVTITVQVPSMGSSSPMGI
Source text: (§1) The data was processed and analyzed with Biacore 8K Evaluation Software Version 3.0.12.15655 (Cytiva, Global Life Sciences Solutions USA LLC, Marlborough, MA). Reference responses from flow cell 1 were subtracted from the active responses from flow cell 2 to obtain the subtracted data (2-1). The responses from the nearest buffer blank injection were then subtracted from the reference subtracted data (2-1) to yield double-referenced data. For hFcγRI, these double-reference data were fit to a simple 1:1 Langmuir binding model with mass transport to determine the apparent association (ka) and dissociation rate constants (kd). The apparent equilibrium dissociation constant or affinity constant was then calculated based on their ratio as (KD=kd/ka). Binding affinity KD values for all the other hFcγR interactions (hFcγIIa-H131, hFcγIIa-R131, hFcγIIIa, and FcγIIIaV158F) were analyzed using a “steady state” (or “equilibrium binding”) method due to their fast on rates and fast off rates.

hFcγIIa-H131 [3] = target: T3, hFcγIIa-H131 (human, UniProt P12318 34-217); assay: as above
T3 construct: extracellular domain; H at position 131 of the H/R131 polymorphism; also called hFcγRIIa (CD32a) H131
T3 sequence (looked up): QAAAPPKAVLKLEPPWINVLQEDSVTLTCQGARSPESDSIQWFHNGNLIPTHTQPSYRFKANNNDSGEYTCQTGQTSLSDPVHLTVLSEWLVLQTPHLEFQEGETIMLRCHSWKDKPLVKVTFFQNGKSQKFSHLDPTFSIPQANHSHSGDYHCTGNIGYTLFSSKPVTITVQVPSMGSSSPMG
Source text: as §1

hFcRn ECD protein [4] = target: T4, hFcRn ECD protein (human, UniProt P55899 24-297; P61769 21-119); assay: SPR (Biacore 8K), 25° C, PBS pH 5.8, antibody captured on nectin-4-coated chip, hFcRn ECD as analyte, steady-state analysis
T4 construct: extracellular domain; also called human FcRn; neonatal Fc receptor
T4 sequence (P55899 24-297 limits assumed, chain 1 of 2): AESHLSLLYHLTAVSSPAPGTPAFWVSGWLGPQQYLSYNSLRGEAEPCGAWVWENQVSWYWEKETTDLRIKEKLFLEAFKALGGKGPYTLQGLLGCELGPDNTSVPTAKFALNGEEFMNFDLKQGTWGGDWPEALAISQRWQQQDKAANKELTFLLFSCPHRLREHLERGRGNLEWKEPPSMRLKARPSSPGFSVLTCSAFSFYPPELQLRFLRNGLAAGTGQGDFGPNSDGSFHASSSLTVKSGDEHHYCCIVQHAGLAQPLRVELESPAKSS
T4 sequence (P61769 21-119 limits assumed, chain 2 of 2): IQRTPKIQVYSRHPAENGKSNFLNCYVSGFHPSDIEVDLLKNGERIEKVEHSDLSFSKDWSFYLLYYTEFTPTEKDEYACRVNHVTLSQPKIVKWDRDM
Experimental: (§2) All experiments were performed at 25° C. using a Biacore 8K equipped with S-type sensor chips and the kinetics data analyses were done using the Biacore Insight Evaluation Software. The running buffer was PBS pH 5.8 with 0.01% Tween-20 for hFcRn interactions and the running buffer for capture was HBS-EP+. Analyte hFcRn ECD protein was used at its nominal concentrations. A “single cycle kinetics” injection mode was used.
(§3) The interactions of DRUG B and DRUG C with hFcRn were analyzed by flowing the hFcRn ECD protein over DRUG B or DRUG C captured on a nectin-4-coated CMS chip. Up to 2400 RU of human nectin-4 ECD were immobilized on both flow cells (1 and 2) of a CMS chip using amine chemistry following Cytiva amine coupling kit instructions. DRUG B or DRUG C were captured on flow cell 2 of each channel for 120 seconds at 10 μL/min at […] in HBS-EP+(100-200 RUs) in a surface preparation method. The hFcRn run was done in PBS pH 5.8 with 0.01% Tween-20. […] Association and dissociation times were monitored for 120s and 600s, respectively. […]
(§4) The data was processed and analyzed with Biacore 8K Evaluation Software Version 3.0.12.15655 (Cytiva, Global Life Sciences Solutions USA LLC, Marlborough, MA). […] Binding affinity KD values were analyzed using a “steady state” (or “equilibrium binding”) method due to their fast on rates and fast off rates.

[5] = target: T1, cynomolgus Nectin-4 extracellular …; assay: SPR (Biacore 8K), DRUG B captured on Protein A chip, nectin-4-ECD as analyte, single-cycle kinetics, 1:1 fit, 25° C; 25° C., cynomolgus nectin-4-ECD
[6] = target: T5, human Nectin-4 extracellular domain (ECD) with C-terminal His6 (human, UniProt Q96NY8 32-349); assay: SPR (Biacore 8K), DRUG B captured on Protein A chip, nectin-4-ECD as analyte, single-cycle kinetics, 1:1 fit; temperature dropped in the text, 25° C by context; 25° C. (by context; temperature dropped in the text), human nectin-4-ECD
T5 construct: also called human Nectin-4-ECD; human nectin-4 ECD
T5 sequence: T1 chain with A39V, V230I
Experimental: (§5) Kinetic injection method used was “single cycle kinetics” (also known as “kinetic titration”) (Karlsson et al. (2006) Analytical Biochemistry. 349(1):136-147).
(§6) The interactions of DRUG B, i.e., an anti-Nectin-4 monoclonal antibody, with the extracellular domain (ECD) of human nectin-4 were analyzed by flowing nectin-4-ECD over DRUG B captured (200-400 RUs) on Biacore Series S Sensor Chip Protein A. DRUG B, at ˜1 μg/mL concentration was captured in flow cell 2 of each channel at flow rate 10 μL/min for 60 seconds (s) contact time while buffer was used for Flow cell 1 respectively. The human nectin-4-ECD analytes were prepared as a 5-membered 3-fold dilution series with top nominal concentration of 300 nM, and each analyte series was injected in order of ascending concentration using a single-cycle kinetics method. Association and dissociation times were monitored for 120s and 1800s, respectively, at 30 μL/min flow rate. The surfaces were regenerated with 75 mM phosphoric acid at pH 1.6 using two pulses of 15s at 30 μL/min flow rate.
(§7) To analyze the data, the following processing steps were applied. Reference responses from flow cell 1 (reference surface) were subtracted from the active responses from flow cell 2 (reaction surface) to obtain the subtracted data (2-1). […]

hFcγIa [7] = target: T6, hFcγIa (human, UniProt P12314 16-292); assay: SPR (Biacore 8K), 25° C, antibody captured on nectin-4-coated chip, receptor ECD as analyte, single-cycle kinetics, 1:1 fit
T6 construct: extracellular domain; also called hFcγRI; CD64
T6 sequence (P12314 16-292): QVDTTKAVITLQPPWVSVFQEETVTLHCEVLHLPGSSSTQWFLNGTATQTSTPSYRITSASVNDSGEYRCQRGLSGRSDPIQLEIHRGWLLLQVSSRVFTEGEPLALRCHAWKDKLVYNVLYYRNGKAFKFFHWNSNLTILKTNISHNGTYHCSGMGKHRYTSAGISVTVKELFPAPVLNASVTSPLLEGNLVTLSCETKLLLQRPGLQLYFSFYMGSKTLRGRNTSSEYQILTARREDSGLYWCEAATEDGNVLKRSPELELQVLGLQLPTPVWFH
Source text: as §1

[8] = target: T5, human Nectin-4 extracellular domain …; assay: SPR (Biacore 8K), DRUG B captured on Protein A chip, nectin-4-ECD as analyte, single-cycle kinetics, 1:1 fit, 37° C; 37° C., human nectin-4-ECD
Experimental: as §5, §6, §7

[9] = target: T5, human Nectin-4 extracellular domain …; assay: SPR, capture on chip with immobilized human nectin-4 ECD (FcγR runs)
hFcγIa [10] = target: T6, hFcγIa; assay: SPR (Biacore 8K), 25° C, ADC captured on nectin-4-coated chip, receptor ECD as analyte, single-cycle kinetics, 1:1 fit
Source text: as §1

hFcRn ECD protein [11] = target: T4, hFcRn ECD protein; assay: SPR (Biacore 8K), 25° C, PBS pH 5.8, ADC captured on nectin-4-coated chip, hFcRn ECD as analyte, steady-state analysis
Experimental: as §2, §3, §4

hFcγIIa-R131 [12] = target: T2, hFcγIIa-R131; assay: SPR (Biacore 8K), 25° C, ADC captured on nectin-4-coated chip, receptor ECD as analyte, steady-state analysis
Source text: as §1

hFcγIIa-H131 [13] = target: T3, hFcγIIa-H131; assay: as above
Source text: as §1

B1: DRUG B (enfortumab similar antibody that specifically binds human nectin-4) (antibody, human IgG1, kappa)
heavy: not shown
light: DIQMTQSPSSVSASVGDRVTITCRASQGISGWLAWYQQKPGKAPKFLIYAASTLQSGVPSRFSGSGSGTDFTLTISSLQPEDFATYYCQQANSFPPTFGGGTKVEIKRTVAAPSVFIFPPSDEQLKSGTASVVCLLNNFYPREAKVQWKVDNALQSGNSQESVTEQDSKDSTYSLSSTLTLSKADYEKHKVYACEVTHQGLSSPVTKSFNRGEC
notes: Expressed in Expi293F cells, about 99% monomer; also called enfortumab similar Ab; Enfortumab similar mAb
With B1 the Kd [1] was ~50.7 nM, the Kd (hFcγIIa-R131 [2]) was 783 nM and the Kd (hFcγIIa-H131 [3]) was 772 nM. It also gave a Kd (hFcRn ECD protein [4]) of 767 nM, a Kd [5] of ~22.6 nM and a Kd [6] of ~14.5 nM. For the same binder, the Kd (hFcγIa [7]) was 0.056 nM and the Kd [8] was ~36.3 nM.

B2: DRUG C (enfortumab vedotin similar antibody-drug conjugate) (antibody, human IgG1, kappa)
heavy: not shown
light: B1 light
modifications: MC-Val-Cit-PAB-MMAE linker-payload conjugated via interchain cysteines of the antibody; average drug-to-antibody ratio 3.85:1
notes: DRUG B conjugated to MC-Val-Cit-PAB-MMAE; also called enfortumab vedotin similar ADC; copies: 2 + 2
With B2 the binding result [9] was “binds”, the Kd (hFcγIa [10]) was 0.091 nM and the Kd (hFcRn ECD protein [11]) was 812 nM. The Kd (hFcγIIa-R131 [12]) was 846 nM and the Kd (hFcγIIa-H131 [13]) was 921 nM.
